From patent US20120309939A1 (Scripps Research, published 2012)

Biological target: T1, human VEGF-R2(KDR):Fc fusion protein (R&D Systems) (human, UniProt P35968 20-764)
T1 construct: Bought reagent, coated on Maxisorp plates; also called VEGF receptor; human VEGF receptor; not shown: Fc part of the bought fusion
Test: ELISA on plates coated with VEGF-R2(KDR):Fc; bound VEGF detected with biotinylated anti-VEGF

T1 sequence (P35968 20-764 limits assumed): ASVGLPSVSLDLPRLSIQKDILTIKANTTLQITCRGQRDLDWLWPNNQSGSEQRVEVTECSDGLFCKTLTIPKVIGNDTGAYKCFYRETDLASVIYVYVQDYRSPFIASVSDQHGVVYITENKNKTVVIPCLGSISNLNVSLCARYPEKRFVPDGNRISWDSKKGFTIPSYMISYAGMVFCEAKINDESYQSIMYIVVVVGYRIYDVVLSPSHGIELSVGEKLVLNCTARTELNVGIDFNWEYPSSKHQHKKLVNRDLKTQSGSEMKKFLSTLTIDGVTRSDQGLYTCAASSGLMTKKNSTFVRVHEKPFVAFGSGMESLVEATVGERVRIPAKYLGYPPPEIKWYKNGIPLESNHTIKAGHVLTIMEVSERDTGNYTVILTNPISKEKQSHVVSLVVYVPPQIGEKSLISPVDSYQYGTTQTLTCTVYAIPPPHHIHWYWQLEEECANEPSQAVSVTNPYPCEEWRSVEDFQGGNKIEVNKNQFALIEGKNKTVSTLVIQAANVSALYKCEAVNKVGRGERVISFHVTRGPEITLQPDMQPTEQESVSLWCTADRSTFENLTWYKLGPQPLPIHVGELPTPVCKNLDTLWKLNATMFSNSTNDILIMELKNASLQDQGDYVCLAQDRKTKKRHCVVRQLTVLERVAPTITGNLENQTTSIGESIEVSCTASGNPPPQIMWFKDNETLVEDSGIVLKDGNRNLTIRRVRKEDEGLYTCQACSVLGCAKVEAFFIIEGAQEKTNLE

binding result: binds
B1: algal-expressed human vascular endothelial growth factor (VEGF) isoform 121, without signal peptide, with C-terminal FLAG-tag, made in the C. reinhardtii … (ligand)
chain: MVPAPMAEGGGQNHHEVVKFMDVYQRSYCHPIETLVDIFQEYPDEIEYIFKPSCVPLMRCGGCCNDEGLECVPTEESNITMQIMRIKPHQGQHIGEMSFLQHNKCECRPKKDRARQENCDKPRRGTGENLYFQGSGGGGSDYKDDDDKGTG
notes: Native VEGF is active as a dimer; also called algal VEGF; algae-derived VEGF
